Measurements taken from patent US20030170730A1, “Assay method, peptides and reagent kits for testing mrp-specific inhibitors” (priority 2000, published 2003).

Assays:
MRP1 variants = MRP1 variants (Homo sapiens, UniProt P33527); test: Vanadate-dependent nucleotide trapping by MRP1 variants in Sf9 membranes; settings: L0 peptide co-expressed with ΔMRP1
ΔMRP1 = target: T1, ΔMRP1 (Homo sapiens, UniProt P33527); test: Restoration of ΔMRP1 transport activity by L0 peptides (vesicular LTC4 / NEM-GS uptake, Sf9 membranes); type: biochemical
T1 construct: An N-terminally truncated MRP1 (amino acids 281-1531); made in house; host or cells: baculovirus-infected Sf9 cells, membrane vesicles
Protocol: The obtained pCLTRX-L0 vector was cloned to E. coli BL21 (DE3) cells, which in turn were grown in TYBG antibiotic broth (10 g tryptone, 10 g yeast extract, 4 g glucose, pH 7.2, 100 μg/ml ampicillin, 25 μg/ml kanamycine) at 37° C. When OD(600) exceeded 1.1 cells were pelleted by centrifugation, suspended in M9 medium, the incubated at 28° C. for 30 min. Afterwards, expression was induced by IPTG for 2 hours. When the induction was finished, cells were pelleted by centrifugation and the pellet was washed with 20% sacharose, then suspended in a solution comprising 20% agarose, 10 mM Tris and 0.1 μg/ml lysosyme (pH 7.2) and incubated for 30 min at 4° C. then sonicated. The lysed cells were pelleted by centrifugation (20000 g, 20 min). The so obtained lysate was used in the further experiments, for studying the restoration of the transport activity.
In order to correctly determine the transport function of the different MRP1 proteins, we estimated the relative amount of transport-competent inside-out vesicles in the Sf9 membrane preparations [Bakos É. et al, (1998), see above], and corrected the transport rates according to the relative MRP1 expression levels, as determined by immunoblotting.

MDCKII-ΔMRP1 cells = test: Immunolocalization of L0 co-expressed with ΔMRP1 in MDCKII monolayers (rescue to plasma membrane); type: cell-based; settings: pool of puromycin resistant MDCKII-ΔMRP1 cells
Description: L0 was detected by indirect immunofluorescence with mAb R1 (green color, light signal in the lateral membrane). […] The arrow head indicates the position where the section was made. Nucleic acids were counterstained with propidium iodide (red signal).
For expression of MRP1 variants in MDCKII cells, the L0MDR1 chimera, ΔMRP1, and MRP1Δ(223-232) were inserted as blunt-end fragments into the retroviral vector pCMV-neo as described [Bakos É et al, (1998), see above]. For co-expression experiments the L0 fragment was cloned into the pBabe-Puro-CMV vector (kindly provided by Dr. J. Wijnholds, The Netherlands Cancer Institute, Amsterdam, The Netherlands). This vector was generated by cloning the blunt-ended HindIII fragment from pCMV-neo (containing the CMV early promoter) into the blunt-ended BamHI site of the pBabe-puro vector [Morgenstern J. P., and Land, H. (1990) Nucleic Acids Res. 18, 3587-3596]. Cells were retrovirally-transduced as described before [Evers, R. Kool, M., van Deemter, L., Janssen, H., Calafat, J., Oomen, L. C., Paulusma, C. C., Oude Elferink R. P., Baas, F., Schinkel, A. H., and Borst P. (1998) J. Clin Invest. 101, 1310-1319]. MDCKII cells stably transduced with the pBabe-Puro or pCMV-neo vector were selected for 4-6 days in medium containing puromycin (3 μg/ml) or for 7 days in medium containing G-418 (800 μg/ml), respectively. […]

T1 sequence (P33527 281-1531, stated change not applied): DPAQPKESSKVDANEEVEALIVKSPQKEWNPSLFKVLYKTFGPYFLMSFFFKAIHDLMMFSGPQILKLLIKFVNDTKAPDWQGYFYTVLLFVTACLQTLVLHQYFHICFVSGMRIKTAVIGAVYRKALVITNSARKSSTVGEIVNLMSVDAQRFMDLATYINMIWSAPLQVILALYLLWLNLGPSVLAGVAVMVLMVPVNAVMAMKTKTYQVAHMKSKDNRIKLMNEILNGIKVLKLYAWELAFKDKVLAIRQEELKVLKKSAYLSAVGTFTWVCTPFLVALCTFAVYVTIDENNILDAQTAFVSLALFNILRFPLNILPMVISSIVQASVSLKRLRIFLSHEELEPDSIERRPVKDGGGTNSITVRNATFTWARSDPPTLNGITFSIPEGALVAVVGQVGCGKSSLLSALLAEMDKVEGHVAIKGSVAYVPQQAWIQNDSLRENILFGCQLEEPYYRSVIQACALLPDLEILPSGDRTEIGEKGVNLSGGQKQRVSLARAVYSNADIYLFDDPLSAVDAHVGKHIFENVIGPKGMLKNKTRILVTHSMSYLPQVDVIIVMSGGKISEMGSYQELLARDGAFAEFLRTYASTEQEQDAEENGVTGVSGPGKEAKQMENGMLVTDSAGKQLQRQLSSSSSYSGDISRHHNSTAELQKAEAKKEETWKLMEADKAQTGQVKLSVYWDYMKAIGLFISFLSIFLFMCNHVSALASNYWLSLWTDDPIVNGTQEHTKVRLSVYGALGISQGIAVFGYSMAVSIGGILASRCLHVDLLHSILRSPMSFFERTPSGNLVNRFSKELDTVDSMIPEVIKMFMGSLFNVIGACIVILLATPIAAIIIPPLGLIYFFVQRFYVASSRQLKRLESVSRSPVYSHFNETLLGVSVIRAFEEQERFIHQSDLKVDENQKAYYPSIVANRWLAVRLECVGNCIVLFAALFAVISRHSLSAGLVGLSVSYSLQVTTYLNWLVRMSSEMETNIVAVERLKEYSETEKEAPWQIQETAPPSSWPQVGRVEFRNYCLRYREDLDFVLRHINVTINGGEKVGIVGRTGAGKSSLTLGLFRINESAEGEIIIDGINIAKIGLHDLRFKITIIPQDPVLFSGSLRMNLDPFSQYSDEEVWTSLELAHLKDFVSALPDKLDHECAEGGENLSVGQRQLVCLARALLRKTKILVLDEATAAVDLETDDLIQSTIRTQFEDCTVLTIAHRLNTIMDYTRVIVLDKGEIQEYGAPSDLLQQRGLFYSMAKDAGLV

B1: L0: amino acids 204-281, representing the N-terminal linker region of MRP1, expressed as a separate peptide (protein, UniProt P33527 204-281, looked up, fragment)
chain: DPNPCPESSASFLSRITFWWITGLIVRGYRQPLEGSDLWSLNKEDTSEQVVPVLVKNWKKECAKTRKQPVKVVYSSKD
modifications: L0 linker region
notes: amino acids 204-281, representing the N-terminal linker region of MRP1, expressed as a separate peptide
- restoration of nucleotide trapping of ΔMRP1 (MRP1 variants): the full activity was restored
- uptake of LTC4 on co-expression with ΔMRP1 (ΔMRP1; at 50 nM LTC4, Sf9 vesicles): about 90 % of MRP1
- uptake of NEM-GS on co-expression with ΔMRP1 (ΔMRP1; at 50 μM NEM-GS, Sf9 vesicles): about 40 % of MRP1
- localization of L0 (mAb R1 staining) (MDCKII-ΔMRP1 cells): clear lateral plasma membrane staining
